The source of these data is patent US20090041783A1 (MOCHIDA PHARMACEUTICAL, published 2009).

Test [1] deals with T1, human GPVI extracellular region-human Fc fusion protein (hGPVI-hFc) (human).
T1 construct: Expressed in COS-1, purified on Protein A; also called GPVI-HHH-hFc; hGPVIHHH-hFc
The experiment in a line: competition ELISA on hGPVI-hFc plate; competitor: peroxidase-labelled F1232-37-2; +++ more than 50%, ++ 30-50%, + 10-30% inhibition. The procedure:
(§1) To analyze a property for each antibody obtained in EXAMPLE 13, binding to human GPVI-hFc, competition with F1232-37-2 described in EXAMPLE 4 and specificity for L9 loop were investigated. That is, as for the binding to human GPVI, according to the method of EXAMPLE 2, a binding activity to immobilized antigen was measured. For the binding activity, the range of absorbance from 0.5 to 1.0 is represented by “+”, from 1.0 to 2.0 by “++”, the range more than 2.0 by “+++”. The competitive test with F1232-37-2 was performed as follows. That is, according to the method by Nakane et al. (J. Histochem. Cytochem., 22, 1084, 1974), peroxidase (TOYOBO)-labeled F1232-37-2 antibody was prepared and an antibody concentration was calculated from the amount of the antibody used.
Next, by using the peroxidase-labeled antibody, the competitive test for a variety of purified antibody was performed. That is, 25 μL of the above labeled antibody and 25 μL of each purified antibody were added to well of hGP-hFc-immobilized plate. After incubation at 37° C. for one hour, the well was washed five times with the saline containing 0.05% Tween20, and the reaction mixture was developed with TMB solution (BioFix). After incubation at room temperature for 10 minutes, the reaction was terminated with 0.5 M sulfuric acid solution and an absorbance at 450 nm was measured with the plate spectrophotometer (Multi-Scan JX, Dainippon Pharmaceutical).

Test [2] concerns the target T1, human GPVI extracellular region-human …. Put plainly: ELISA on immobilised hGPVI-hFc; + A450 0.5-1.0, ++ 1.0-2.0, +++ more than 2.0. The procedure: The hGPVI-hFc prepared by EXAMPLE 1B was diluted with D-PBS to 2 μg/mL and added to immunoplate (Maxisorp NUNC) at 50 μL/well. After incubation at 37° C. for one hour, the well was washed five times with ion-exchanged water, and D-PBS (pH7.4) containing 2% StabilGuard (Surmodics) was added to each well in 100 μL for blocking. Next, culture supernatant was added to each well and incubated at 37° C. for one hour. After incubation, the well was washed three times with the saline containing 0.05% Tween20. Peroxidase-labeled anti-mouse immunoglobulin antibody (DAKO, P260) was 1000-fold diluted with D-PBS containing 10% rabbit serum and added to each well at 50 μL. After incubation at 37° C. for one hour, washing in a similar manner was performed and TMB solution (BioFix) was added to each well. After ten minutes at room temperature, the reaction was terminated with 0.5 M sulfuric acid solution. Subsequently, absorbance at 450 nm was measured with the plate spectrophotometer (Multiscan JX, Dainippon Pharmaceutical). As a result, the cell whose culture supernatant reacted to hGPVI-hFc was selected and a cloning with limiting dilution method (“The Introduction to Monoclonal Antibody Experimental Procedure” written by Tamie Andoh and Takeshi Chiba (Kodansha, p 83)) was performed. Eight days later, screening was done in a similar manner and the antibody which reacts to hGPVI-hFc was selected.
as §1

Test [3] shares this target. The experiment in a line: ELISA of hybridoma culture supernatant on coated hGPVI-hFc (selection criterion). The procedure:
Next, culture supernatant was added to each well and incubated at 37° C. for one hour. After incubation, the well was washed three times with the saline containing 0.05% Tween20. Peroxidase-labeled anti-mouse immunoglobulin antibody (DAKO, P260) was 1000-fold diluted with D-PBS containing 10% rabbit serum and added to each well at 50 μL. After incubation at 37° C. for one hour, washing in a similar manner was performed and TMB solution (BioFix) was added to each well. After ten minutes at room temperature, the reaction was terminated with 0.5 M sulfuric acid solution. Subsequently, absorbance at 450 nm was measured with the plate spectrophotometer (Multiscan JX, Dainippon Pharmaceutical). As a result, the cell whose culture supernatant reacted to hGPVI-hFc was selected and a cloning with limiting dilution method (“The Introduction to Monoclonal Antibody Experimental Procedure” written by Tamie Andoh and Takeshi Chiba (Kodansha, p 83)) was performed. Eight days later, screening was done in a similar manner and the antibody which reacts to hGPVI-hFc was selected.
After one week, hybridoma, which produces a desired antibody was screened using the binding property to hGPVI-hFc and hGPVI-mL9-hFc prepared in EXAMPLE 7 as an index. That is, the purified hGPVI-hFc or hGPVI-mL9-hFc, which was prepared in EXAMPLE 1, was diluted with D-PBS (pH7.4) to 1 μg/mL. And 50 μL/well of the solution was added to make hGPVI-hFc or hGPVI-mL9-hFc-coated plate using the same method as that of EXAMPLE 2. Next, a culture supernatant was added to each well, and after incubation at room temperature for one hour, by the same method as that of EXAMPLE 2, using peroxidase-labeled anti-mouse immunoglobulin antibody (DAKO, P260) a reaction was performed to measure an absorbance. As a result, the cell producing an antibody that binds to the purified hGPVI-hFc (absorbance: equal to or more than one), but not hGPVI-mL9-hFc (abdorbance: equal to or less than 0.5) was selected and cloned by the method described in EXAMPLE 2. Eight through ten days later, a screening was done as with the similar way to obtain a hybridoma producing an L9-specific mouse anti-human GPVI antibody. As with EXAMPLE 2B (3), the obtained hybridoma was cultured and a monoclonal antibody was purified. The sub-type of each antibody was determined using IsoStrip Mouse Monoclonal antibody Isotyping Kit (Roche).

The target is the same in test [4]. The experiment in a line: ELISA, collagen on plate, hGPVI-hFc plus antibody; +++ more than 50%, ++ 30-50%, + 10-30% inhibition.

T1 sequence (chain, as listed by the source limits assumed): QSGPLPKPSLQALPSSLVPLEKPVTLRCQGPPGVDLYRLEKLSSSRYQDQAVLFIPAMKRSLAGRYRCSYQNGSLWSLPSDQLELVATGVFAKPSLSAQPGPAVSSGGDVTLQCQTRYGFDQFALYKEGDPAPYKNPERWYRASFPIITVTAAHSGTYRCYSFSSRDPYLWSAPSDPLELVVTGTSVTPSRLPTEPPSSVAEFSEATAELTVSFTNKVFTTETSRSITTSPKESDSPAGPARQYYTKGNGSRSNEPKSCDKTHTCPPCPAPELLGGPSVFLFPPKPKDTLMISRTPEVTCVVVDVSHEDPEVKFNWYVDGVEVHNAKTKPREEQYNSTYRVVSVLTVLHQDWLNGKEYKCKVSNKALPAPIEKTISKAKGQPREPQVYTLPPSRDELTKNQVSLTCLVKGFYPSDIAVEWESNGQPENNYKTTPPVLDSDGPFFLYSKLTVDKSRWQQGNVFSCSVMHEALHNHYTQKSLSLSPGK

B1: F1245-7-1 (antibody, V domains shown)
VH: QVQLQQPGAELVKPGASVKLSCKASGYTFTSYWMHWVKQRPGQGLEWIGMIHPNSGSTNYNEKFKSKATLTVDKSSSTAYMQLSSLTSEDSAVYYCASPVTAVVEYYFDYWGQGTTLTVSS
VL: SIVMTQTPKFLLVSAGDRVTITCKASQSVSNDVAWYQQKPGQSPKLLIYYASNRYTGVPDRFTGSGYGTDFTFTISTVQAEDLAVYFCQQDYSSLTFGSGTKLEIKR
Take B1: in test [1], the percent inhibition is 10 to 30%. For the same molecule, the absorbance in test [2] is 1 to 2 od; in test [3], at least 1 absorbance.

B2: F1249-20-1 (antibody, V domains shown)
VH: QVQLQQSGAELVRPGVSVKISCKGSGYTFTDYAMHWVKQSHAKSLEWIGVISTYYGDTSYNQKFKGKATMTVDKSSSTAYMELARLTSEDSAIYYCARAEDYDPWFAYWGQGTLVTVSA
VL: DIVLTQSPASLAVSLGQRATISCRASESVDSYGNSFMYWYQQKPGQPPKLLIYRASNLESGIPARFSGSGSRTDFTLTINPVEADDVATYYCQQSDEDPLTFGAGTKLELKR
Regarding B2, the percent inhibition in test [1] was 30 to 50%. Further, the results for the absorbance in test [2] and in test [3] were above 2 od and at least 1 absorbance, respectively.

B3: F1249-22-1 (antibody, V domains shown)
VH: QVQLQQPGAELVKPGASVKLSCKASGYTFTSYWMQWVKERPGQGLEWIGEIDPSDSYTNYNQKFKGKATLTVDTSSSTACMQLSSLTSEDSAVYYCARGAITTATLDYWGQGTTLTVSS
VL: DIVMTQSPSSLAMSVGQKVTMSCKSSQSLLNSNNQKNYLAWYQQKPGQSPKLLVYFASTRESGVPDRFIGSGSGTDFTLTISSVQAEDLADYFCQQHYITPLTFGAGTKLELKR
Consider B3, for which the figures for the percent inhibition in test [1] and in test [4] were 10 to 30% and 30 to 50%, respectively. Also, the absorbance in test [2] was 0.5 to 1 od; in test [3], at least 1 absorbance.

B4: F1249-3-2 (antibody, V domains shown)
VH: EVQLVESGGGLVKPGGSLKLSCAASGFTFSSYGMSWVRQTPDKRLEWVATISSGGSYTYYSDSVKGRFTISRDNAKNNLYLQLSSLKSQDTAIYYCARDSGYFDYWGQGTTLTVSS
VL: NIVLTQSPASLAVSLGQRATISCRASESVDSYGNSFMHWYQQKPGQPPKLLIYLASNLESGVPARFSGSGSRTDFTLTIDPVEADDAATYYCQQNNEDPRTFGGGTKLEIKR
As to B4, the results for the percent inhibition in test [1] and in test [4] were 30 to 50% and 10 to 30%, respectively. In addition, the results for the absorbance in test [2] and in test [3] were 0.5 to 1 od and at least 1 absorbance, respectively.

B5: F1246-1-1 (antibody, V domains shown)
VH: EVQLVESGGDLVKPGGSLKLSCAASGFTFSSYGMSWVRQTPDKRLEWVATISNGGTYTYYPDSVKGRFTISRDNAKNTLYLQMSSLKSDDTAMYYCGRLRDYYAMDYWGQGTSVTVSS
VL: DIVLTQSPASLAVSLGQRATISCRASESVDSYGNSFMHWYQQKPGQPPKLLIYRASNLESGIPARFSGSGSRTDFTLTINPVEADDVATYYCQQSNEDPWTFGGGTKLEIKR
B5: the percent inhibition in test [1] was in the range of 10 to 30%. The values for the absorbance in test [2] and in test [3] were 1 to 2 od and at least 1 absorbance, respectively.

B6: F1249-30-1 (antibody, V domains shown)
VH: QVQLQQSGAELVRPGVSVKISCKGSGYTFTDYAMHWVKQSHAKSLEWIGVISTYYGDTSYNQKFKGKAAMTVDKSSSTAYMELARLTSDDSAIYYCARAEDYDPWFAYWGQGTLVTVSA
VL: DIVLTQSPASLAVSLGQRATISCRASESVDSYGNSFMHWYQQKPGQPPKLLIYRASNLESGIPARFSGSGSRTDFTLTINPVEADDVATYYCQQSDEDPLTFGAGTKLELKR
Consider B6, for which the percent inhibition in test [1] is above 50%. For the same molecule, the absorbance in test [2] is above 2 od; in test [3], at least 1 absorbance.

B7: F1245-4-1 (antibody, V domains shown)
VH: QVQLQQPGAELVKPGASVKLSCKASGCTFTSYWMHWVKQRPGQGLEWIGMIHPNSDNTNYNEKFKSKATLTVDKSSSTAYMHLSSLTSEDSAVYYCATHYYDYVDYWGQGTTLTVSS
VL: NIVMTQTPKFLLVSAGDRVTITCKASQSVSNDVAWYQQKPGQSPKLLIYYASNRYTGVPDRFTGSGYGTDFTFTISTVQAEDLAVYFCQQDYSSPWTFGGGTKLEIKR
With B7, the values for the percent inhibition in test [1] and in test [4] were 30 to 50% and 10 to 30%, respectively. In addition, the absorbance in test [2] was above 2 od; in test [3] it was at least 1 absorbance.

B8: F1249-18-2 (antibody, V domains shown)
VH: QVQLQQPGAELVKPGASVKLSCKASGYTFTSYWMHWLKQRPGQGLEWIGMIHPNSDITNYNEKFKNKATLTVDKSSSTAYMQLSSLTSEDSAVYYCARSGDYYAMDYWGQGTSVTVSS
VL: SIVMTQTPKFLLVSAGDRVTITCKASQSVSNDVAWYQQKPGQSPKLLIYYASNRYTGVPDRFTGSGYGTDFTFTISTVQAEDLAVYFCQQDYSSPPTFGGGTKLEIKR
In the case of B8, the percent inhibition was 30 to 50% in test [1] and above 50% in test [4]. Further, the absorbance in test [2] was above 2 od; in test [3], at least 1 absorbance.

B9: F1249-5-1 (antibody, V domains shown)
VH: QVQLQQPGAELVKPGASVKLSCKASGYTFTSYWMHWLKQRPGQGLEWIGMIHPNSDITNYNEKFKNKATLTVAKSSSTAYMQLSSLTSEDSAVYYCARLGDYYAMDYWGQGTSVTVSS
VL: SIVMTQTPKFLLVSAGDRVTITCKASQSVSNDVTWYQQKPGQSPKLLIYYASNRYTGVPDRFTGSGYGTDFTFTISTVQAEDLAVYFCQQDYSSPPTFGGGTKLEIKR
For B9, the figures for the percent inhibition in test [1] and in test [4] were 30 to 50% and 10 to 30%, respectively. The absorbance in test [2] is 1 to 2 od; in test [3] it was at least 1 absorbance.

B10: F1251-1-1 (antibody, V domains shown)
VH: QVNLLQSGAALVKPGASVKLSCKASGYTFTDYYIHWVKQSHGKSLEWIGYINPNSGYTNYNEKFKSKATLTVDKSTNTAYMELSRLTSEDSATYYCTRCNSGYGDWFAYWGQGTLLTVSS
VL: DIQMTQSPPVLSASVGDRVTLSCKASQNINKNLDWYQQKHGEAPKLLIYYTNNLQTDIPSRFSGSGSGTDYTLTISSLQPEDVATFYCYQYNSGPGTFGAGTKLELKR
In the case of B10, the percent inhibition in test [1] and in test [4] was 10 to 30% in each case. The results for the absorbance in test [2] and in test [3] were 0.5 to 1 od and at least 1 absorbance, respectively.

B11: F1257-3-1 (antibody, V domains shown)
VH: QVTLKESGPGMLQPSKTLSLTCSFSGFSLSTSGMVVSWIRQPSGKSLEWLAAIDWDGDKYYNPSLKSRLTVSKDTSNTQVFLKISSVDIADTATYYCARTPYYGYKEAYYFDYWGQGVKVTVSS
VL: DIQMTQSPASLSASLEEIVTITCKASRAIDDYLSWYQQKPGKSPQLLIYDATSLADGVPSRFSGSRSGTQYSLKISRPQVDDSGIYYCLQSYSTPWTFGGGTKLDLKR
In the case of B11, the absorbance in test [2] is above 2 od.
